Test results taken from CN114437226A (HANGZHOU CYANINE INGENKANG BIOTECHNOLOGY LTD COMPANY, dated 2022).
Where a chain is given by its changes, count along the chain named. In names and notes the source's numbering stands.

T1: 人白介素22(IL22)(Sino Biological) (human, UniProt Q9GZX6 34-179)
T1 sequence (looked up): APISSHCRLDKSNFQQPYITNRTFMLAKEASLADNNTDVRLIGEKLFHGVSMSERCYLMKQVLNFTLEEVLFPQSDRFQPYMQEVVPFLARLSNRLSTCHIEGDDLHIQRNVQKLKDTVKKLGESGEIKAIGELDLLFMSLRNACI

B1: FezHλ-ClaH(K218C)κ(F118C) (bispecific antibody, human IgG1, lambda)
heavy 1: QVQLVQSGAEVKKPGASVKVSCKASGYTFTNYYMHWVRQAPGQGLEWVGWINPYTGSAFYAQKFRGRVTMTRDTSISTAYMELSRLRSDDTAVYYCAREPEKFDSDDSDVWGRGTLVTVSSASTKGPSVFPLAPSSKSTSGGTAALGCLVKDYFPEPVTVSWNSGALTSGVHTFPAVLQSSGLYSLSSVVTVPSSSLGTQTYICNVNHKPSNTKVDKKVEPKSCDKTHTCPPCPAPELLGGPSVFLFPPKPKDTLMISRTPEVTCVVVDVSHEDPEVKFNWYVDGVEVHNAKTKPREEQYNSTYRVVSVLTVLHQDWLNGKEYKCKVSNKALPAPIEKTISKAKGQPREPQVYTLPPSREEMTKNQVSLSCAVKGFYPSDIAVEWESNGQPENNYKTTPPVLDSDGSFFLVSKLTVDKSRWQQGNVFSCSVMHEALHNRFTQKSLSLSPGHHHHHH
light 1: QAVLTQPPSVSGAPGQRVTISCTGSSSNIGAGYGVHWYQQLPGTAPKLLIYGDSNRPSGVPDRFSGSKSGTSASLAITGLQAEDEADYYCQSYDNSLSGYVFGGGTQLTVLGQPKAAPSVTLFPPSSEELQANKATLVCLISDFYPGAVTVAWKADSSPVKAGVETTTPSKQSNNKYAASSYLSLTPEQWKSHRSYSCQVTHEGSTVEKTVAPTECS
heavy 2: not shown
light 2: AIQMTQSPSSLSASVGDRVTITCQASQSINNELSWYQQKPGKAPKLLIYRASTLASGVPSRFSGSGSGTDFTLTISSLQPDDFATYYCQQGYSLRNIDNAFGGGTKVEIKRTVAAPSVFICPPSDEQLKSGTASVVCLLNNFYPREAKVQWKVDNALQSGNSQESVTEQDSKDSTYSLSSTLTLSKADYEKHKVYACEVTHQGLSSPVTKSFNRGEV
notes: also called K218C/F118C
B2: FezHλ-ClaH(S132C)κ(F116C) (bispecific antibody, human IgG1, lambda)
heavy 1: B1 heavy 1
light 1: B1 light 1
heavy 2: not shown
light 2: B1 light 2 with F119C, C121F
notes: also called S132C/F116C

Molecular target: T1, 人白介素22(IL22)(Sino Biological)
Experiment: ELISA, IL22-coated plate (Fig 11)

| Binder | binding result |
| --- | --- |
| B1 | binds |
| B2 | binds |
